From publication PMC2288894 come the findings set out here.

Experiment [1] concerns the target the class I heavy chains (H-2Kb, Db, Kd, and Ld; Fig. 9). In words: co-IP.
Experiment [2] deals with H-2Db class I heavy chain (mouse (endogenous in EL4)). In words: cross-linking.
Experiment [3] has as its target H-2Kd class I heavy chain (mouse (endogenous in MDAY-D2)). Description: cross-linking.
Experiment [4] has as its target H-2Kb class I heavy chain (mouse (endogenous in EL4)). In words: cross-linking.
In experiment [5] the target is H-2Ld class I heavy chain (mouse (endogenous in MDAY-D2)). In words: cross-linking.
H-2Ld class I heavy chain (mouse (endogenous in MDAY-D2)), sequence (P01897 25-362): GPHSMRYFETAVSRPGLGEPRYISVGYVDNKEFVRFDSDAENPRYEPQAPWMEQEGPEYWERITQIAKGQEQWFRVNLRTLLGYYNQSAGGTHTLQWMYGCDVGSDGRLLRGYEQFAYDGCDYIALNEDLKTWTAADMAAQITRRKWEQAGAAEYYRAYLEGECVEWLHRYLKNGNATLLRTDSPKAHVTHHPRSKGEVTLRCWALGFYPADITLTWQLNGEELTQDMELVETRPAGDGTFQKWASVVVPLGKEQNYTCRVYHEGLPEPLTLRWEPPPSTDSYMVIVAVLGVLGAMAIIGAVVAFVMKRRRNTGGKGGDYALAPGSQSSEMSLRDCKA
In experiment [6] the target is the other three class I molecules (Bio-Gel A0.5m). In words: SEC.

H-2Db class I heavy chain (mouse (endogenous in EL4)), sequence (P01899 25-362): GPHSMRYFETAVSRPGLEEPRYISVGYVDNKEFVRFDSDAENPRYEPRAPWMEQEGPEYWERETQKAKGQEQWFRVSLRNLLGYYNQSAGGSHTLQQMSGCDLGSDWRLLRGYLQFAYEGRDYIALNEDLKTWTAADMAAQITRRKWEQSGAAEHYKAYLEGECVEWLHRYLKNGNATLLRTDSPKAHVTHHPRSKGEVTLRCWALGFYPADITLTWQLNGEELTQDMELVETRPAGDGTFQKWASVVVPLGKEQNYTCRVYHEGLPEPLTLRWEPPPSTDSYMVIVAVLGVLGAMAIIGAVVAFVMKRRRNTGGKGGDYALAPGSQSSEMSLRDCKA
H-2Kb class I heavy chain (mouse (endogenous in EL4)), sequence (P01901 22-369): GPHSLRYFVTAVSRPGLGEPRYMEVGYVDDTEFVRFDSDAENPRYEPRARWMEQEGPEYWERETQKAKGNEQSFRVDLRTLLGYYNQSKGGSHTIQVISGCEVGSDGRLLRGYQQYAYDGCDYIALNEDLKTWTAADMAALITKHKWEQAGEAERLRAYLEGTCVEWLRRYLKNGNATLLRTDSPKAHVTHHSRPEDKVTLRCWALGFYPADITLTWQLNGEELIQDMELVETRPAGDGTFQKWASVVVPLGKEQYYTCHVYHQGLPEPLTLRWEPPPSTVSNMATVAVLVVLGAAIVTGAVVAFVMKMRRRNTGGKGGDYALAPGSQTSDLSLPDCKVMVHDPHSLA
H-2Kd class I heavy chain (mouse (endogenous in MDAY-D2)), sequence (P01902 22-368): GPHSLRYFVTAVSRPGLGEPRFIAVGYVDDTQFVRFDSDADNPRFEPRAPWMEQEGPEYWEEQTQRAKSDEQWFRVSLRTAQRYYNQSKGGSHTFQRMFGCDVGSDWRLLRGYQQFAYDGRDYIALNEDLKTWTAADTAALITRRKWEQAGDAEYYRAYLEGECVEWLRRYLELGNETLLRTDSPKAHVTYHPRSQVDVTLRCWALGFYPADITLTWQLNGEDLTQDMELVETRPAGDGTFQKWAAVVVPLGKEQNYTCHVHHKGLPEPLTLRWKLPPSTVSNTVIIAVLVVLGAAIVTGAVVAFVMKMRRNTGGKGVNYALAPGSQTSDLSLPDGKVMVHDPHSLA

As for “beta 2-microglobulin (from UniProt P01887 21-119) (natural protein)”, the half-time of association post pulse (in cells) in experiment [1] fell in the range of 2 to 5 min.

B1: p88 (novel 88-kD protein) (natural protein)
chain: HDGHDDDAIDIEDDLDDVIEEVEDSKSKSDASTPPSPKVTYKAPVPTGEVYFADSFDRGSLSGWILSKAKKDDTDDEIAKYDGKWEVDEMKETKLPGDKGLVLMSRAKHHAISAKLNKPFLFDTKPLIVQYEVNFQNGIECGGAYVKLLSKTAELSLDQFHDKTPYTIMFGPDKCGEDYKLHFIFRHKNPKTGVYEEKHAKRPDADLKTYFTDKKTHLYTLILNPDNSFEILVDQSVVNSGNLLNDMTPPVNPSREIEDPEDRKPEDWDERPKIADPDAVKPDDWDEDAPSKIPDEEATKPEGWLDDEPEYIPDPDAEKPEDWDEDMDGEWEAPQIANPKCESAPGCGVWQRPMIDNPNYKGKWKPPMIDNPNYQGIWKPRKIPNPDFFEDLEPFKMTPFSAIGLELWSMTSDIFFDNFIISGDRRVVDDWANDGWGLKKAADGAAEPGVVLQMLEAAEERPWLWVVYILTVALPVFLVILFCCSGKKQSNAMEYKKTDAPQPDVKDEEGKEEEKNKRDEEEEEEKLEEKQKSDAEEDGVTGSQDEEDSKPKAEEDEILNRSPRNRKPRRE
On to B1, for which the half-time of disappearance of the complex after the pulse (in cells) in experiment [2] amounted to 45 min; in experiment [3] it was 38 min; in experiment [4], 20 min; in experiment [5], 45 min. Besides, the values for the half-time of p88 dissociation in the presence of BFA (in cells) in experiment [2] and in experiment [4] were 42 min and 23 min, respectively. This molecule also came in with a percent of heavy chains in the oligomeric species in the pulse-labeled sample in experiment [6] of 20 to 60%.
